B1: Hex-S3R pentamer, 5'-shortened (ssRNA)
RNA: CGUGU
B2: Hex-S1D (ssDNA)
DNA: CGACCG
B3: Hex-S3R pentamer, 3'-shortened (ssRNA)
RNA: UCGUG
B4: 4-thioU-Hex-S3R (XNA)
RNA: UCGUGU
modifications: 4-thio-U at position 4
B5: Hex-S1D-2'OMe (XNA)
strand: CGACCG
modifications: fully 2'-OMe
B6: Hex-S3R (ssRNA)
RNA: UCGUGU
B7: Hex-S3D (ssDNA)
DNA: TCGTGT
B8: Hex-S3D-LNA (XNA)
DNA: TCGTGT
modifications: LNA at position 1
B9: Hex-S3D-2'OMe (XNA)
DNA: TCGTGT
modifications: fully 2'-OMe
B10: Hex-S1D-PS (XNA)
strand: CGACCG
modifications: phosphorothioate
B11: Hex-S3D-PS (XNA)
DNA: TCGTGT
modifications: phosphorothioate

What was measured:
Test in all cases: filter binding
[1] = biological target: T1, HIV-1 reverse transcriptase p66/p51 (HIV-1, UniProt P03366;P03366 600-1159;600-1039)
[2] = biological target: T1, HIV-1 reverse transcriptase p66/p51; remark: listed apart in the source
[3] = biological target: T1, HIV-1 reverse transcriptase p66/p51; remark: listed apart in the source
[4] = biological target: HIV-2 reverse transcriptase (HIV-2, UniProt P04584;P04584 613-1171;613-1051)
HIV-2 reverse transcriptase, sequence (P04584 613-1171, chain 1 of 2): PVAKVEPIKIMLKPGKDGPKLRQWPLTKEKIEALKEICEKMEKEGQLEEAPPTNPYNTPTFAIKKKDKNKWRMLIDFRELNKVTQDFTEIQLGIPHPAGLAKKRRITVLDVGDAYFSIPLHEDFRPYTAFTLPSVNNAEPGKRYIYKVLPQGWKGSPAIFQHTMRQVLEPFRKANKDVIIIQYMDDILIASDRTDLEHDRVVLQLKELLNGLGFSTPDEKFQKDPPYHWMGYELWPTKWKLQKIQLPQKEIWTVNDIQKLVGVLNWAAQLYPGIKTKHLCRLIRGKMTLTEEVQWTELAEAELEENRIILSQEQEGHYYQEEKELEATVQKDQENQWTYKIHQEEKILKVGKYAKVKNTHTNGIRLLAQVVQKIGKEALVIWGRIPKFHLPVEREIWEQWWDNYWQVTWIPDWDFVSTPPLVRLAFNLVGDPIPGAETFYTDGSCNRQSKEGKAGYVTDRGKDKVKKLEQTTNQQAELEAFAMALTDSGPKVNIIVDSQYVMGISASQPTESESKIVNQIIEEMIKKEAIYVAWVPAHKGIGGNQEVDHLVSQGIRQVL
HIV-2 reverse transcriptase, sequence (P04584 613-1051, chain 2 of 2): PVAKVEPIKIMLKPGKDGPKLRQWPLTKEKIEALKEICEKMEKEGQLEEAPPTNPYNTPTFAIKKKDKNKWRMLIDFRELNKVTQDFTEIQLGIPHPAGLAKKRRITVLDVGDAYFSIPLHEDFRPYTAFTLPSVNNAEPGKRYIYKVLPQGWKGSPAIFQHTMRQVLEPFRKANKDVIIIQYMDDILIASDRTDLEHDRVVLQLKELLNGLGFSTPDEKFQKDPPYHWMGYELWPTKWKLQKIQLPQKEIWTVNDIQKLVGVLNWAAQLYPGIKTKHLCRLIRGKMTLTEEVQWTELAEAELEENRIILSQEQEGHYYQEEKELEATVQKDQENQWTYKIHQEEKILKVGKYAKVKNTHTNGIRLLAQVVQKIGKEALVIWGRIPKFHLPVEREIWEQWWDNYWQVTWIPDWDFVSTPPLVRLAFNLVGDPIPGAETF

Binder	binding signal [2]	further results
B1	–	binding result [1]: no binding
B2	5.8 ± 0.6 relative binding (unit not printed)	–
B3	–	binding result [1]: no binding
B4	9.8 ± 0.5 relative binding (unit not printed)	–
B5	0.5 ± 0.1 relative binding (unit not printed)	–
B6	–	Kd [3]: 5.3 ± 0.5 µM
B7	8.1 ± 1 relative binding (unit not printed)	–
B8	4.3 ± 0.4 relative binding (unit not printed)	–
B9	2 ± 0.1 relative binding (unit not printed)	–
B10	18.3 ± 6 relative binding (unit not printed)	binding signal [4]: 6.6 ± 1.7 relative binding (unit not printed)
B11	52.8 ± 9.8 relative binding (unit not printed)	binding signal [4]: 24.9 ± 3.6 relative binding (unit not printed)

Source: publication PMC1635251
